Results reported in patent publication US20220403048A1, “BINDING MOLECULES TO ARGINASE II [ARG2]” (Cancer Research Technology Limited, priority 2019, published 2022).

B1: C0021158 IgG: anti-ARG2 antibody, VH SEQ ID NO: 282, VL SEQ ID NO: 287; IgG and Fab versions carry these sequences (antibody, listed as Homo sapiens, V domains shown)
VH: EVQLLESGGGLVQPGGSLRLSCAASGFTFRYEVAAWVRQAPGKGLEWVSAISGPIPKGYYADSVKGRFTISRDNSKNTLYLQMNSLRAEDTAVYYCARLRADLGLYMDLWGRGTLVTVSS
VL: QSVLTQPPSVSAAPGQKVTISCSGSSSNIGNHYVSWYQQLPGTAPKLLIYDNSERTAGVPDRFSGSKSGTSATLGITGLQTGDEADYYCGTWDELTSNLVFGGGTKLTVL
modifications: C0021158 IgG
B2: C0021158: anti-ARG2 antibody, second generation lead, VH SEQ ID NO: 272, VL SEQ ID NO: 277 (antibody, listed as Homo sapiens, V domains shown)
VH: EVQLLESGGGLVQPGGSLRLSCAASGFTFRYEVAAWVRQAPGKGLEWVSAISGPIPKGYYADSVKGRFTISRDNSKNTLYLQMNSLRAEDTAVYYCARLRADLGLYMDLWGRGTLVTVPS
VL: QSVLTQPPSVSAAPGQKVTISCSGSSSNIGNHYVSWYQQLPGTAPKLLIYDNSERTAGVPDRFSGSKSGTSATLGITGLQTGDEADYYCGTWDELTSNLVFGGGTKLTVL
modifications: C0021158

Assays:
human ARG2 (trimer) = target: T1, human ARG2 (trimer) (Homo sapiens, UniProt P78540); assay: Mechanism of action study (effect on ARG2 Vmax and Km) in trimeric ARG2 enzyme inhibition assay; assay type: biochemical; conditions: for Km / Vmax: arginine 2.5-250 mM; for mode of action on ARG2: from effects on Vmax and Km
T1 construct: human ARG2 (aa23-354); His10 (C); made in house; host or cells: E. coli BL21 (DE3)
T1 sequence (P78540 23-354): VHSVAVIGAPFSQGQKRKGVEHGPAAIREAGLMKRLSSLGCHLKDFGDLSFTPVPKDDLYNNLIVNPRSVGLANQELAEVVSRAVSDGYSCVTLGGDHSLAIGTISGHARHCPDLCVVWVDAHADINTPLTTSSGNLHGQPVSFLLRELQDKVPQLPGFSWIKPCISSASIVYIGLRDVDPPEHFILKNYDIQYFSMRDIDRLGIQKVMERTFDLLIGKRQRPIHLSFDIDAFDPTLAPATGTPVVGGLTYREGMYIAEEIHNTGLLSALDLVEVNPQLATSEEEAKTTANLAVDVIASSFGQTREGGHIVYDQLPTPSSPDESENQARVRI
Text: The mechanism of action of enzyme inhibitors can be broadly divided into competitive, uncompetitive and non-competitive and can be identified as such based on their effects on Km and Vmax.
A competitive inhibitor binds only to free enzyme, often at the active site, causing the affinity of the enzyme for the substrate to be reduced (increased Km) with no change to the maximum enzyme rate (Vmax).
The enzyme's affinity for the substrate is increased (Km is decreased) and the maximum enzyme rate (Vmax) is decreased.
A non-competitive inhibitor binds equally well to free enzyme and enzyme-substrate complex. The enzyme's affinity for the substrate (Km) is unchanged and the maximum enzyme rate (Vmax) is decreased. […]
The mechanism of action of the lead identification clone C0021158 IgG was investigated using the human ARG2 (trimer) enzyme inhibition assay as well as isothermal titration calorimetry.
The enzyme inhibition assay is described in section 1.5 and is a biochemical assay that measures production of urea, the product of L-arginine turnover by ARG2. To investigate the mechanism of action of C0021158 IgG, four point titrations of C0021158 IgG (1000, 100, 30 and 10 nM) were set up in the presence of 11 concentrations of arginine ([…]) and the reaction allowed to proceed for 80, 60, 45, 30, 15 or 5 minutes before the addition of the urea detection reagents O-Phthaldialdehyde and N-(1-Napthyl)ethylenediamine.
Raw data from each separate concentration of C0021158 IgG was plotted as a function of time for each concentration of arginine and fitted using a linear fit (GraphPad Prism) to derive initial velocities (slope values).
Initial velocity data was plotted against arginine concentration for each concentration of C0021158 IgG (FIG. 15A). Each trace was fitted to the Michaelis-Menten model (Y=Vmax*X/(Km+X)) in GraphPad Prism to derive maximum velocity (Vmax) and enzyme/substrate affinity (Km) values at each inhibitor concentration (Table 23).
In the case of C0021158 IgG inhibitor Vmax decreased in the presence of C0021158 IgG inhibitor, ruling out a competitive mode of action and pointing towards an uncompetitive or a non-competitive mode of action. To distinguish non-competitive from uncompetitive modes of action the effect on Km must be assessed. […] This uncharacteristic profile led to poor fitting of the data making it difficult to derive an accurate Km. The lack of accurate Km data means C0021158 IgG cannot be assigned as uncompetitive or non-competitive.

[1] = target: T2, THP-1 lysate derived human trimeric ARG2 (Homo sapiens, UniProt P78540); assay: THP-1 lysate derived human ARG2 enzyme inhibition assay; assay type: biochemical; conditions: recombinant human IgG1, lysate without plasma (section 3.3), FIG. 13; read-out: THP-1 lysate ARG2 EIA IC50
T2 construct: expressed in transfected cells; host or cells: THP-1 cells overexpressing human ARG2 (cell lysate)
T2 sequence (P78540 23-354): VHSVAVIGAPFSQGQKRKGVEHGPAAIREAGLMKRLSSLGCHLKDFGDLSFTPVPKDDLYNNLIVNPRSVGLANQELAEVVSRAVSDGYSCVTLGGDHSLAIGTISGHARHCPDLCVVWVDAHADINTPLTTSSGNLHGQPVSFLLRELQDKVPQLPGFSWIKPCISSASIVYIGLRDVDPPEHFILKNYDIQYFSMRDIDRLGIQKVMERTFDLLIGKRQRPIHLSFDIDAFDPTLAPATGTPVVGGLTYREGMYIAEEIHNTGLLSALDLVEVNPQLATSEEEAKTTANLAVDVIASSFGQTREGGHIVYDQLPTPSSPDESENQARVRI
Method: Anti-ARG2 IgGs were tested for their ability to inhibit mammalian expressed human ARG2 produced in transfected THP-1 cells. To do this cell lysates were prepared from THP-1 cells overexpressing human ARG2 and from wild type THP-1 cells. 350 million cells were suspended in 3 ml tris buffered saline (25 mM Tris+150 mM sodium chloride in dH2O, pH 7.4) and cell lysates prepared by passing through a 26G needle 20 times. A BCA assay was used to measure the protein concentration in the lysate. […] Antibodies were tested alongside N-Hydroxyl-L-Arginine (a small molecule competitive inhibitor of ARG2) as a positive control and CEA6 (irrelevant isotype control antibody) as a negative control. Data points were plotted and IC50 values determined using a four parameter fit in GraphPad Prism (FIG. 11, Table 13).
Anti-ARG2 IgGs were tested for their ability to inhibit to mammalian expressed human ARG2 produced in transfected THP-1 cells. […] Urea detection reagents, O-Phthaldialdehyde (1.5 mM O-Phthaldialdehyde, 7% H2SO4, 0.03% Brij L23) and N-(1-Napthyl)ethylenediamine (1.66 mM N-(1-Napthyl)ethylenediamine, 81 mM Boric acid, 21% H2SO4, 0.03% Brij L23) were mixed 1:1 just prior to use and 80 μl/well were added, incubated for 1 hour at room temperature and absorbance at 505 nm was read on a Pherastar plate reader. […]

Molecule | Km (human ARG2 (trimer); 10 nM C0021158 IgG) [µM] | Vmax (human ARG2 (trimer); 10 nM C0021158 IgG) [AU ms^−1] | Vmax (human ARG2 (trimer); 30 nM C0021158 IgG) [AU ms^−1] | Km (human ARG2 (trimer); 100 nM C0021158 IgG) [µM] | Vmax (human ARG2 (trimer); 100 nM C0021158 IgG) [AU ms^−1] | Vmax (human ARG2 (trimer); 1 μM C0021158 IgG) [AU ms^−1] | mode of action on ARG2 (human ARG2 (trimer)) | mode of action on ARG2 (human ARG2 (trimer); listed as C0021158 fab) | IC50 [1] [nM]
B1 | 1640 | 148.5 | 89.23 | 590 | 112.8 | 103.4 | not competitive | allosteric inhibitor | 
B2 |  |  |  |  |  |  |  |  | 5.36
